Conditions in all cases: remark: other sources report otherwise
For assay [1], the target named is T1, recombinant ICAM-1 Fc chimera, P05362.
T1 chain: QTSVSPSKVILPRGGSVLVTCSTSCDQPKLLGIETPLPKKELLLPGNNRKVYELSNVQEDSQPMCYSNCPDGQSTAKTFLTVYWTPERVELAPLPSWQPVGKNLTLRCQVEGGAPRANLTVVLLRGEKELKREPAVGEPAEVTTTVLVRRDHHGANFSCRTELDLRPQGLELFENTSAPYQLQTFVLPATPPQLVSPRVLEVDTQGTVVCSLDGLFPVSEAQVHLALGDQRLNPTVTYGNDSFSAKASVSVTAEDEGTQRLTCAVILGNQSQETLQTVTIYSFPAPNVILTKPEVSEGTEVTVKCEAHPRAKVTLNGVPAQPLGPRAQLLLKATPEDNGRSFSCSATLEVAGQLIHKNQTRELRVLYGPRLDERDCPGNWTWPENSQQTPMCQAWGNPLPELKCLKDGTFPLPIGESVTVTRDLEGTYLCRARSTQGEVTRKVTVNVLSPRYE
The assay can be described thus: BIAcore; dissociation phase, 1:1 model. On the technique in general: In SPR one partner is held on a chip, and binding of the other changes the refractive index at the surface.

For assay [2] the target is unchanged. Nature of the assay: BIAcore; Scatchard plots at steady state.
Assay [3] has the same target. Nature of the assay: BIAcore; Kon calculated by Koff/KD.

B1: recombinant soluble wild-type αL I-domain (G128-Y307), E. coli, P20701 153-332 (receptor)
chain: GNVDLVFLFDGSMSLQPDEFQKILDFMKDVMKKLSNTSYQFAAVQFSTSYKTEFDFSDYVKRKDPDALLKHVKHMLLLTNTFGAINYVATEVFREELGARPDATKVLIIITDGEATDSGNIDAAKDIIRYIIGIGKHFQTKESQETLHKFASKPASEFVKILDTFEKLKDLFTELQKKIY
Broadly, the koff is the rate constant with which the complex falls apart. As a reminder, the Kd is the concentration at which binding is half-saturated. As a reminder, the kon is the second-order rate constant of association. As to B1, the koff in assay [1] stood at 3 s⁻¹. In addition, the Kd in assay [2] was 1350 µM. Also, the kon in assay [3] is 2220 M⁻¹ s⁻¹.

Values taken from patent US20020123614A1.
